Our source for the Kd values is patent US10766960 (dated 2020).

Common to all, as to assay: SPR
For orientation: Surface plasmon resonance follows binding to a sensor surface in real time, without labels.

The target in one experiment is T1, FcgRIIa R (human, UniProt P12318).
T1 chain: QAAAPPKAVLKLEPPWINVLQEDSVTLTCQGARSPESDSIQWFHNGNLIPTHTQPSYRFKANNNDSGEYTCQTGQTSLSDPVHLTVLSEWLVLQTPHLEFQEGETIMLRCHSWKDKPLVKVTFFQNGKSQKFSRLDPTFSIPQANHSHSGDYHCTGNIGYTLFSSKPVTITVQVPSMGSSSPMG

For another experiment, the target named is FcgRIIIa V (human, UniProt P08637).
The target in another experiment is T2, FcgRIIa H (human, UniProt P12318).
T2 chain: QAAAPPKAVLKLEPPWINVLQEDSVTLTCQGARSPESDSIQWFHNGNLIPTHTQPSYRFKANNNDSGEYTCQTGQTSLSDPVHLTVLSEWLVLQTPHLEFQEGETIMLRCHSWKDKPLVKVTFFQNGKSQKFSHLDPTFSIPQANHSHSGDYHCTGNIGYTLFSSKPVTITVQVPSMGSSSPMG

The target of another experiment is T3, FcgRIIb (human, UniProt P31994).
T3 chain: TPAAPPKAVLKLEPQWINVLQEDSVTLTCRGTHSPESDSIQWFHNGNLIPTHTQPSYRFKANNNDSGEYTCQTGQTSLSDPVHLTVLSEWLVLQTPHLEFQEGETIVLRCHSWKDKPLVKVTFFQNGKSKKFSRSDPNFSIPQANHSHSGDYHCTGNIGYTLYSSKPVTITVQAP

The next experiment concerns the target T4, FcgRIa (human, UniProt P12314).
T4 chain: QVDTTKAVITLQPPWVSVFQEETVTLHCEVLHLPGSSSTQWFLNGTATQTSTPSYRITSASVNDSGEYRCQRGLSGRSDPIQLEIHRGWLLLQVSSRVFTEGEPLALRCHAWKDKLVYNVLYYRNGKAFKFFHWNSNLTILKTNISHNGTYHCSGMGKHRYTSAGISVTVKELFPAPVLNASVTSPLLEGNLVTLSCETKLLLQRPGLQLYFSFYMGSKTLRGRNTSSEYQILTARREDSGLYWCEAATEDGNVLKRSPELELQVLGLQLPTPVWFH

For another experiment, the target named is FcgRIIIa F (human, UniProt P08637).
Sequence of FcgRIIIa F (P08637 17-208): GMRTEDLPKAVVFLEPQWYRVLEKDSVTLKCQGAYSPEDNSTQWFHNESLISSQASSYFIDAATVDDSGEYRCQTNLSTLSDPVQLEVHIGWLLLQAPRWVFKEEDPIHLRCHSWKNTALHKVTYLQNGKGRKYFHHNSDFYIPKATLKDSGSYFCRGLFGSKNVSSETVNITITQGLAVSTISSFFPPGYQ

Sequence of FcgRIIIa V (P08637 17-208 F176V): as the sequence (P08637 17-208) above, with F160V counted along it

B1: H240-FA024/H240-FB001/L73-k0 (antibody)
chain 1: QDQLVQSGAEVKKPGASVKVSCKASGFNIKDTYIQWVRQAPGQGLEWMGRIDPLRKQTKYREKFEGRVTITADTSTNTAYMELSSLRSEDTAVYYCVRSGREFDYWGQGTLVTVSSASTKGPSVFPLAPSSKSTSGGTAALGCLVKDYFPEPVTVSWNSGALTSGVHTFPAVLQSSGLYSLSSVVTVPSSSLGTKTYTCNVNHKPSNTKVDKKVEPKSCDKTHTCPPCPAPEYYWGPSVFLFPPKPKDTLMISRTPEVTCVVVDVSDEEPKVKFNWYVDGVEVHNAKTKPREEQYNATYRVVSVLTVLHQDWLNGKEYKCKVSNKALPAPIEKTISKAKGQPREPQVYTLPPSRKEKTKNQVSLTCLVKGFYPSDIAVEWESNGQPENNYKTTPPVLDSDGSFFLYSKLTVDKSRWQQGNVFSCSVMHEALHNRYTQKSLSLSP
chain 2: QDQLVQSGAEVKKPGASVKVSCKASGFNIKDTYIQWVRQAPGQGLEWMGRIDPLRKQTKYREKFEGRVTITADTSTNTAYMELSSLRSEDTAVYYCVRSGREFDYWGQGTLVTVSSASTKGPSVFPLAPSSKSTSGGTAALGCLVKDYFPEPVTVSWNSGALTSGVHTFPAVLQSSGLYSLSSVVTVPSSSLGTQTYICNVNHKPSNTKVDKKVEPKSCDKTHTCPPCPAPELLGGPSVFLFPPKPKDTLMISRTPEVTCVVVDVSHEEPEVQFNWYVDGVEVHNAKTKPREEQYNSTYRVVSVLTVLHQDWLNGKEYKCKVSNDALPMPIEETISKAKGQPREPQVYTLPPSREEMTKNQVSLTCLVKGFYPSDIAVEWESNGQPENNYKTTPPVLDSDGSFFLYSKLTVDKSRWQQGNVFSCSVMHEALHNHYTQESLSLSP
chain 3: DIQMTQSPSSLSASVGDRVTITCRASQDIHKYIAWYQQKPGQAPRLLIQYTSTLQPGVPSRFSGSGSGTDYTFTISSLQPEDIATYYCLQYEQLRTFGGGTKVEIKRTVAAPSVFIFPPSDEQLKSGTASVVCLLNNFYPREAKVQWKVDNALQSGNSQESVTEQDSKDSTYSLSSTLTLSKADYEKHKVYACEVTHQGLSSPVTKSFNRGEC
One may read the Kd as the concentration at which binding is half-saturated. B1: the Kd in the experiment with FcgRIIa R stood at 370 nM; with FcgRIIIa V it was 1.9 nM; with FcgRIIa H, 110 nM; with FcgRIIb, 2000 nM; with FcgRIa, 1.8 nM; in the experiment with FcgRIIIa F, 6.7 nM.

B2: H240-FA030/H240-FB001/L73-k0 (antibody)
chain 1: QDQLVQSGAEVKKPGASVKVSCKASGFNIKDTYIQWVRQAPGQGLEWMGRIDPLRKQTKYREKFEGRVTITADTSTNTAYMELSSLRSEDTAVYYCVRSGREFDYWGQGTLVTVSSASTKGPSVFPLAPSSKSTSGGTAALGCLVKDYFPEPVTVSWNSGALTSGVHTFPAVLQSSGLYSLSSVVTVPSSSLGTKTYTCNVNHKPSNTKVDKKVEPKSCDKTHTCPPCPAPEYYWGPSVFLFPPKPKDTLMISRTPEVTCVVVDVSDEEPKVKFNWYVDGVEVHNAKTKPREEQYNATYRVVSVLTVLHQDWLNGKEYKCKVSNKALPAPIEKTISKAKGQPREPQVYTLPPSRKEMTKNQVSLTCLVKGFYPSDIAVEWESNGQPENNYKTTPPVLDSDGSFFLYSKLTVDKSRWQQGNVFSCSVMHEALHNRYTQKSLSLSP
chain 2: QDQLVQSGAEVKKPGASVKVSCKASGFNIKDTYIQWVRQAPGQGLEWMGRIDPLRKQTKYREKFEGRVTITADTSTNTAYMELSSLRSEDTAVYYCVRSGREFDYWGQGTLVTVSSASTKGPSVFPLAPSSKSTSGGTAALGCLVKDYFPEPVTVSWNSGALTSGVHTFPAVLQSSGLYSLSSVVTVPSSSLGTQTYICNVNHKPSNTKVDKKVEPKSCDKTHTCPPCPAPELLGGPSVFLFPPKPKDTLMISRTPEVTCVVVDVSHEEPEVQFNWYVDGVEVHNAKTKPREEQYNSTYRVVSVLTVLHQDWLNGKEYKCKVSNDALPMPIEETISKAKGQPREPQVYTLPPSREEMTKNQVSLTCLVKGFYPSDIAVEWESNGQPENNYKTTPPVLDSDGSFFLYSKLTVDKSRWQQGNVFSCSVMHEALHNHYTQESLSLSP
chain 3: DIQMTQSPSSLSASVGDRVTITCRASQDIHKYIAWYQQKPGQAPRLLIQYTSTLQPGVPSRFSGSGSGTDYTFTISSLQPEDIATYYCLQYEQLRTFGGGTKVEIKRTVAAPSVFIFPPSDEQLKSGTASVVCLLNNFYPREAKVQWKVDNALQSGNSQESVTEQDSKDSTYSLSSTLTLSKADYEKHKVYACEVTHQGLSSPVTKSFNRGEC
B2: the Kd with FcgRIIa R came out at 440 nM; in the experiment with FcgRIIIa V it was 1.7 nM; with FcgRIIa H it was 120 nM; with FcgRIIb it was 3300 nM; with FcgRIa, 0.036 nM; with FcgRIIIa F, 6.4 nM.

B3: H240-FA024/H240-FB084/L73-k0 (antibody)
chain 1: QDQLVQSGAEVKKPGASVKVSCKASGFNIKDTYIQWVRQAPGQGLEWMGRIDPLRKQTKYREKFEGRVTITADTSTNTAYMELSSLRSEDTAVYYCVRSGREFDYWGQGTLVTVSSASTKGPSVFPLAPSSKSTSGGTAALGCLVKDYFPEPVTVSWNSGALTSGVHTFPAVLQSSGLYSLSSVVTVPSSSLGTKTYTCNVNHKPSNTKVDKKVEPKSCDKTHTCPPCPAPEYYWGPSVFLFPPKPKDTLMISRTPEVTCVVVDVSDEEPKVKFNWYVDGVEVHNAKTKPREEQYNATYRVVSVLTVLHQDWLNGKEYKCKVSNKALPAPIEKTISKAKGQPREPQVYTLPPSRKEKTKNQVSLTCLVKGFYPSDIAVEWESNGQPENNYKTTPPVLDSDGSFFLYSKLTVDKSRWQQGNVFSCSVMHEALHNRYTQKSLSLSP
chain 2: QDQLVQSGAEVKKPGASVKVSCKASGFNIKDTYIQWVRQAPGQGLEWMGRIDPLRKQTKYREKFEGRVTITADTSTNTAYMELSSLRSEDTAVYYCVRSGREFDYWGQGTLVTVSSASTKGPSVFPLAPSSKSTSESTAALGCLVEDYFPEPVTVSWNSGALTSGVHTFPAVLQSSGLYSLSSVVTVPSSNFGTQTYTCNVDHKPSNTKVDKTVEPKSCDKTHTCPPCPAPELLGGPSVFLFPPKPKDTLMISRTPEVTCVVVDVSHEEPEVQFNWYVDGVEVHNAETKPREEQYNSTYRVVSVLTVLHQDWLNGKEYKCKVSNDALPMPIEETISKAKGQPREPQVYTLPPSREEMTKNQVSLTCLVKGFYPSDIAVEWESEGQPENNYKTTPPVLDSDGSFFLYSKLTVDKSRWQQGNVFSCSVMHEALHNHYTQESLSLSP
chain 3: DIQMTQSPSSLSASVGDRVTITCRASQDIHKYIAWYQQKPGQAPRLLIQYTSTLQPGVPSRFSGSGSGTDYTFTISSLQPEDIATYYCLQYEQLRTFGGGTKVEIKRTVAAPSVFIFPPSDEQLKSGTASVVCLLNNFYPREAKVQWKVDNALQSGNSQESVTEQDSKDSTYSLSSTLTLSKADYEKHKVYACEVTHQGLSSPVTKSFNRGEC
Take B3: the Kd with FcgRIIa R was determined as 250 nM; in the experiment with FcgRIIIa V, 1.2 nM; in the experiment with FcgRIIa H, 79 nM; in the experiment with FcgRIIb it was 1500 nM; with FcgRIa, 0.095 nM; with FcgRIIIa F it was 4.6 nM.

B4: H240-FA020/H240-FB083/L73-k0 (antibody)
chain 1: QDQLVQSGAEVKKPGASVKVSCKASGFNIKDTYIQWVRQAPGQGLEWMGRIDPLRKQTKYREKFEGRVTITADTSTNTAYMELSSLRSEDTAVYYCVRSGREFDYWGQGTLVTVSSASTKGPSVFPLAPSSKSTSGGTAALGCLVKDYFPEPVTVSWNSGALTSGVHTFPAVLQSSGLYSLSSVVTVPSSSLGTKTYTCNVNHKPSNTKVDKKVEPKSCDKTHTCPPCPAPEYYWGPSVFLFPPKPKDTLMISRTPEVTCVVVDVSDEEPEVKFNWYVDGVEVHNAKTKPREEQYNATYRVVSVLTVLHQDWLNGKEYKCKVSNKALPAPIEKTISKAKGQPREPQVYTLPPSRKEKTKNQVSLTCLVKGFYPSDIAVEWESNGQPENNYKTTPPVLDSDGSFFLYSKLTVDKSRWQQGNVFSCSVMHEALHNRYTQKSLSLSP
chain 2: QDQLVQSGAEVKKPGASVKVSCKASGFNIKDTYIQWVRQAPGQGLEWMGRIDPLRKQTKYREKFEGRVTITADTSTNTAYMELSSLRSEDTAVYYCVRSGREFDYWGQGTLVTVSSASTKGPSVFPLAPSSKSTSESTAALGCLVEDYFPEPVTVSWNSGALTSGVHTFPAVLQSSGLYSLSSVVTVPSSNFGTQTYTCNVDHKPSNTKVDKTVEPKSCDKTHTCPPCPAPELLGGPSVFLFPPKPKDTLMISRTPEVTCVVVDVSHEEPEVQFNWYVDGVEVHNAETKPREEQYNSTYRVVSVLTVLHQDWLNGKEYKCKVSNDALPMPIEETISKAKGQPREPQVYTLPPSREEMTKNQVSLTCLVKGFYPSDIAVEWESNGQPENNYKTTPPVLDSDGSFFLYSKLTVDKSRWQQGNVFSCSVMHEALHNHYTQESLSLSP
chain 3: DIQMTQSPSSLSASVGDRVTITCRASQDIHKYIAWYQQKPGQAPRLLIQYTSTLQPGVPSRFSGSGSGTDYTFTISSLQPEDIATYYCLQYEQLRTFGGGTKVEIKRTVAAPSVFIFPPSDEQLKSGTASVVCLLNNFYPREAKVQWKVDNALQSGNSQESVTEQDSKDSTYSLSSTLTLSKADYEKHKVYACEVTHQGLSSPVTKSFNRGEC
As to B4, the Kd with FcgRIIa R was determined as 230 nM; with FcgRIIIa V, 1.1 nM; with FcgRIIa H, 65 nM; in the experiment with FcgRIIb, 1000 nM; in the experiment with FcgRIa, 0.12 nM; with FcgRIIIa F, 3.4 nM.
